Measured values reported in patent US20190300590A1 (PROTAGONIST THERAPEUTICS, published 2019).
Like-named read-outs stand apart in the source and are kept apart here. *1 amine or outer side, *2 acyl side, *3 side chain or, on linkers, in order; H or OH if unused. Bridges are numbered along the chain shown (N, C = ends). Primed or numbered codes have the meaning given here. [ ]: non-standard residue; d: D form. Phe(4-OMe)(3) = O-methyl-L-tyrosine (4-methoxy-L-phenylalanine), COc1ccc(C[C@H](N[*:1])C(=O)[*:2])cc1; Phe(4-OMe) = 4-methoxy-L-phenylalanine (O-methyl-L-tyrosine), COc1ccc(C[C@H](N[*:1])C(=O)[*:2])cc1; Phe(4-OMe)(4) = O-methyl-L-tyrosine, COc1ccc(C[C@H](N[*:1])C(=O)[*:2])cc1; Phe(3,4-Cl2) = N[C@@H](Cc1ccc(Cl)c(Cl)c1)C(=O)O; Tyr(Ph) = N[C@@H](Cc1ccc(Oc2ccccc2)cc1)C(=O)O; Phe(2,4-Me2) = Cc1ccc(C[C@H](N)C(=O)O)c(C)c1; 1Nal = N[C@@H](Cc1cccc2ccccc12)C(=O)O; 2Nal = N[C@@H](Cc1ccc2ccccc2c1)C(=O)O; AEF = NCCOc1ccc(C[C@H](N)C(=O)O)cc1; αMeF = C[C@](N)(Cc1ccccc1)C(=O)O; 4Pal = N[C@@H](Cc1ccncc1)C(=O)O; Cha = N[C@@H](CC1CCCCC1)C(=O)O; αMeK = C[C@](N)(CCCCN)C(=O)O; Abu = CC[C@H](N)C(=O)O; Aib = CC(C)(N)C(=O)O

Experiments:
[1] = target: T1, IL23R_huFC (human, UniProt Q5VWK5 24-353); experiment: human ELISA vs IL-23
T1 sequence (looked up): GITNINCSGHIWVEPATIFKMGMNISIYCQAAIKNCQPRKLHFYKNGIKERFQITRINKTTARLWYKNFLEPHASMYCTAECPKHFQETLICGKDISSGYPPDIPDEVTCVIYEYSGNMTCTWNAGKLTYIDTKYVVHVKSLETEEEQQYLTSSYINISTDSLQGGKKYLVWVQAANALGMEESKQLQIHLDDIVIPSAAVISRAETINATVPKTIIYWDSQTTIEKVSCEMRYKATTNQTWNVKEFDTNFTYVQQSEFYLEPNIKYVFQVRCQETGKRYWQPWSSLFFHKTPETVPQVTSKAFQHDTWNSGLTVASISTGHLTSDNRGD

[2] = target: T2, IL-23R on human cells (IL-23R-expressing DB cells; human NK cells) (human, UniProt Q5VWK5 24-629); experiment: cell-based or functional assay
T2 sequence (looked up): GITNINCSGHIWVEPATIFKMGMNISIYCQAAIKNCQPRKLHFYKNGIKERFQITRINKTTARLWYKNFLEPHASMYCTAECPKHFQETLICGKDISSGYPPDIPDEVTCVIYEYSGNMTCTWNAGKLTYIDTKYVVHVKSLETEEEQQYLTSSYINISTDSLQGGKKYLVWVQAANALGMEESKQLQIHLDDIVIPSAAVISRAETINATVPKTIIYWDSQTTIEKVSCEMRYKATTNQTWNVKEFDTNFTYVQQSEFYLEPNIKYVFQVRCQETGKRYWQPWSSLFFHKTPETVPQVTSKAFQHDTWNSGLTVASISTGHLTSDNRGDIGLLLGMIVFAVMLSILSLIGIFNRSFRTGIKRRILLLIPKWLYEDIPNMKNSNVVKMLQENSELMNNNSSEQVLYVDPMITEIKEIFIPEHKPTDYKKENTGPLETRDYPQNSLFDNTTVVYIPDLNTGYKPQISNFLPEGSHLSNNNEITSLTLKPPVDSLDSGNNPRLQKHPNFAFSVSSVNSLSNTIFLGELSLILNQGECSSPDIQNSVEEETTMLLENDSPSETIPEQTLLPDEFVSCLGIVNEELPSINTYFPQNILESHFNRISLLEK

[3] = target: Rat IL-23R_huFC (rat); experiment: rat ELISA vs IL-23
[4] = target: T1, IL23R_huFC; experiment: human ELISA vs IL-23; remark: listed apart in the source
[5] = target: T1, IL23R_huFC; experiment: human ELISA vs IL-23; remark: listed apart in the source

## Ac-[Abu]QTWQC[Tyr(Ph)][2Nal][αMeK]K(Ac)NG-NH2 (thioether 1-6) [Ac-Cyclo-[[Abu]-QTWQC]-[Phe(4-Phenoxy)]-[2-Nal][α-MeLys]-[Lys(Ac)]-NG-NH2]
[1]
  IC50: 0.1 to 1 µM

## Ac-[Abu]QTWQC[Phe(4-OMe)][2Nal][Cha]K(Ac)NG-NH2 (thioether 1-6) [Ac-Cyclo-[[Abu]-QTWQC]-[Phe(4-OMe)]-[2-Nal]-[Cha]-[Lys(Ac)]-NG-NH2]
[2]
  pStat3 HTRF IC50: < 10 nM
[3]
  IC50: 0.025 to 0.1 µM
[4]
  IC50: 0.025 to 0.1 µM

## XQTWQCFXXKNG (as bracketed in name; thioether cyclo) [Ac-Cyclo-[[Abu]-QTWQC]-[Phe(4-OMe)]-[2-Nal]-[Orn]-[Lys(Ac)]-NG-NH2]
[1]
  IC50: 0.1 to 1 µM

## Ac-[Abu]QTWQC[AEF][2Nal][Aib]K(Ac)QG-NH2 (thioether 1-6) [Ac-Cyclo-[[Abu]-QTWQC]-[Phe[4-(2-aminoethoxy)]]-[2-Nal]-[Aib]-[Lys(Ac)]-QG-NH2]
[2]
  pStat3 HTRF IC50: < 10 nM
[5]
  IC50: 0.01 to 0.025 µM

## XQTWQCFXXKNG (as bracketed in name; thioether cyclo) [Ac-Cyclo-[[Abu]-QTWQC]-[Phe[4-(2-aminoethoxy)]]-[2-Nal]-[Orn]-[Lys(Ac)]-NG-NH2]
[5]
  IC50: 0.01 to 0.025 µM

## Ac-[Abu]QTWQC[AEF][2Nal][Aib]EK(Ac)G-NH2 (thioether 1-6) [Ac-Cyclo-[[Abu]-QTWQC]-[Phe[4-(2-aminoethoxy)]]-[2-Nal]-[Aib]-E-[Lys(Ac)]-G-NH2]
[2]
  pStat3 HTRF IC50: < 10 nM
[5]
  IC50: 0.01 to 0.025 µM

## Ac-[Abu]QTWQC[2Nal][2Nal][αMeK]ENG-NH2 (thioether 1-6) [Ac-Cyclo-[[Abu]-QTWQC]-[2-Nal]-[2-Nal]-[α-MeLys]-ENG-NH2]
[3]
  IC50: 0.025 to 0.1 µM
[4]
  IC50: 0.025 to 0.1 µM

## Ac-[Abu]QT[Phe(2,4-Me2)]QC[AEF][2Nal][αMeK]ENG-NH2 (thioether 1-6) [Ac-Cyclo-[[Abu]-QT-[Phe(2,4-Me2)]-QC]-[Phe[4-(2-aminoethoxy)]]-[2-Nal]-[α-MeLys]-ENG-NH2]
[1]
  IC50: 0.1 to 1 µM

## Ac-[Abu]QTWQC[4Pal][2Nal][αMeK]K(Ac)NG-NH2 (thioether 1-6) [Ac-Cyclo-[[Abu]-QTWQC]-[4-Pyridylalanine]-[2-Nal][α-MeLys]-[Lys(Ac)]-NG-NH2]
[1]
  IC50: 0.1 to 1 µM

## Ac-[Abu]QTWQC[Phe(4-OMe)][2Nal][αMeK]VNG-NH2 (thioether 1-6) [Ac-Cyclo-[[Abu]-QTWQC]-[Phe(4-OMe)]-[2-Nal]-[α-MeLys]-VNG-NH2]
[2]
  pStat3 HTRF IC50: < 10 nM
[3]
  IC50: 0.025 to 0.1 µM
[4]
  IC50: 0.025 to 0.1 µM

## Ac-[Abu]QTWQC[Phe(4-OMe)][1Nal][αMeK]ENG-NH2 (thioether 1-6) [Ac-Cyclo-[[Abu]-QTWQC]-[Phe(4-OMe)]-[1-Nal]-[α-MeLys]-ENG-NH2]
[3]
  IC50: 0.025 to 0.1 µM
[4]
  IC50: 0.025 to 0.1 µM

## Ac-[Abu]QT[αMeF]QC[AEF][2Nal][αMeK]ENG-NH2 (thioether 1-6) [Ac-Cyclo-[[Abu]-QT-[α-MePhe]-QC]-[Phe[4-(2-aminoethoxy)]]-[2-Nal]-[α-MeLys]-ENG-NH2]
[1]
  IC50: 0.1 to 1 µM

## Ac-[Abu]QTWQC[AEF][2Nal][αMeK]RNG-NH2 (thioether 1-6) [Ac-Cyclo-[[Abu]-QTWQC]-[Phe[4-(2-aminoethoxy)]]-[2-Nal]-[α-MeLys]-RNG-NH2]
[2]
  pStat3 HTRF IC50: < 10 nM
[5]
  IC50: 0.01 to 0.025 µM

## Ac-[Abu]QTWQC[Phe(4-OMe)(3)][2Nal][αMeK]K(Ac)QG-NH2 (thioether 1-6) [Ac-Cyclo-[[Abu]-QTWQC]-[Phe(4-OMe)]-[2-Nal][α-MeLys]-[Lys(Ac)]-QG-NH2]
[2]
  pStat3 HTRF IC50: < 10 nM
[3]
  IC50: 0.025 to 0.1 µM
[4]
  IC50: 0.025 to 0.1 µM

## Ac-[Abu]QTWQC[Phe(3,4-Cl2)][2Nal][αMeK]K(Ac)NG-NH2 (thioether 1-6) [Ac-Cyclo-[[Abu]-QTWQC]-Phe(3,4-Cl2)[2-Nal][α-MeLys]-Lys(Ac)]NG-NH2]
[1]
  IC50: 0.1 to 1 µM

## Ac-[Abu]QT[2Nal]QC[Phe(4-OMe)(4)][2Nal][αMeK]K(Ac)NG-NH2 (thioether 1-6) [Ac-Cyclo-[[Abu]-QT-[2-Nal]-QC]-[Phe(4-OMe)]-[2-Nal]-[α-MeLys]-[Lys(Ac)]-NG-NH2]
[1]
  IC50: 0.1 to 1 µM

## XQTXQCFXKENG (as bracketed in name; thioether cyclo)
[1]
  IC50: 0.1 to 1 µM

## Ac-[Abu]QTWQC[2Nal][2Nal][αMeK]K(Ac)NG-NH2 (thioether 1-6) [Ac-Cyclo-[[Abu]-QTWQC]-[2-Nal]-[2-Nal]-[α-MeLys]-[Lys(Ac)]-NG-NH2]
[3]
  IC50: 0.025 to 0.1 µM
[4]
  IC50: 0.025 to 0.1 µM

## Ac-[Abu]STWQC[AEF][2Nal][αMeK]KNGGE-NH2 (thioether 1-6) [Ac-Cyclo-[[Abu]-STWQC]-[Phe[4-(2-aminoethoxy)]]-[2-Nal]-[α-MeLys]-KNGGE-NH2]
[1]
  IC50: 0.1 to 1 µM

## XQTWQCFWXENG (as bracketed in name; thioether cyclo) [Ac-Cyclo-[[Abu]-QTWQC]-[Phe[4-(2-aminoethoxy)]]-W-[α-Me-Orn]-ENG-NH2]
[2]
  pStat3 HTRF IC50: < 10 nM
[5]
  IC50: 0.01 to 0.025 µM
